Laboratory results reported in patent US20160271244A1.

Legend:
SSA [1] = assay: Athena autoantigen assay, mAb 25 ug/ml
Sm [2] = assay: Athena autoantigen assay, mAb 25 ug/ml
Scl 70 [3] = assay: Athena autoantigen assay, mAb 25 ug/ml
SSB [4] = assay: Athena autoantigen assay, mAb 25 ug/ml
RNP [5] = assay: Athena autoantigen assay, mAb 25 ug/ml
Histone [6] = assay: Athena autoantigen assay, mAb 25 ug/ml
Jo 1 [7] = assay: Athena autoantigen assay, mAb 25 ug/ml
[8] = biological target: deglycosylated JRFL gp140 CF (HIV-1); assay: SPR, MAb on the surface, Env injected; JRFL wt DEG 5 (PNGase 5 U/µg)
[9] = biological target: deglycosylated JRFL gp140 CF (HIV-1); assay: SPR, MAb on the surface, Env injected; JRFL wt DEG 500 (PNGase 500 U/µg); Koff (x10^-3 s-1)
SSA [10] = assay: Athena autoantigen assay, mAb 50 ug/ml
SSB [11] = assay: Athena autoantigen assay, mAb 50 ug/ml
Histone [12] = assay: Athena autoantigen assay, mAb 50 ug/ml
Jo 1 [13] = assay: Athena autoantigen assay, mAb 50 ug/ml
[14] = biological target: deglycosylated JRFL gp140 CF (HIV-1); assay: SPR, MAb on the surface, Env injected; JRFL wt DEG 20 (PNGase 20 U/µg); Kon (x10^3 M-1s-1)
[15] = biological target: deglycosylated JRFL gp140 CF (HIV-1); assay: SPR, MAb on the surface, Env injected; JRFL wt DEG 500 (PNGase 500 U/µg); Kon (x10^3 M-1s-1)
[16] = biological target: membrane conjugated gp41-inter; assay: SPR, gp41-inter held by Ni on liposomes captured on the chip, mAb injected; bivalent analyte fit [right panel]
JRFL gp140 (HIV-1) [17] = assay: SPR, MAb on the surface, Env injected; JRFFL wt (not deglycosylated)
SSA [18] = assay: Athena autoantigen assay, mAb 12.5 ug/ml
Sm [19] = assay: Athena autoantigen assay, mAb 12.5 ug/ml
Scl 70 [20] = assay: Athena autoantigen assay, mAb 12.5 ug/ml
SSB [21] = assay: Athena autoantigen assay, mAb 12.5 ug/ml
RNP [22] = assay: Athena autoantigen assay, mAb 12.5 ug/ml
Histone [23] = assay: Athena autoantigen assay, mAb 12.5 ug/ml
Jo 1 [24] = assay: Athena autoantigen assay, mAb 12.5 ug/ml
[25] = biological target: deglycosylated JRFL gp140 CF (HIV-1); assay: SPR, MAb on the surface, Env injected; JRFL wt DEG 5 (PNGase 5 U/µg); Kon (x10^3 M-1s-1)
[26] = biological target: deglycosylated JRFL gp140 CF (HIV-1); assay: SPR, MAb on the surface, Env injected; JRFL wt DEG 5 (PNGase 5 U/µg); Koff (x10^-3 s-1)
[27] = biological target: deglycosylated JRFL gp140 CF (HIV-1); assay: SPR, MAb on the surface, Env injected; JRFL wt DEG 500 (PNGase 500 U/µg)
[28] = biological target: deglycosylated JRFL gp140 CF (HIV-1); assay: SPR, MAb on the surface, Env injected; JRFL wt DEG 20 (PNGase 20 U/µg)
JRFL gp140 (HIV-1) [29] = assay: SPR, MAb on the surface, Env injected; JRFFL wt (not deglycosylated); Koff (x10^-3 s-1)
[30] = biological target: deglycosylated JRFL gp140 CF (HIV-1); assay: SPR, MAb on the surface, Env injected; JRFL wt DEG 20 (PNGase 20 U/µg); Koff (x10^-3 s-1)
SSA [31] = assay: Athena autoantigen assay, mAb 6.25 ug/ml
Sm [32] = assay: Athena autoantigen assay, mAb 6.25 ug/ml
Scl 70 [33] = assay: Athena autoantigen assay, mAb 6.25 ug/ml
SSB [34] = assay: Athena autoantigen assay, mAb 6.25 ug/ml
RNP [35] = assay: Athena autoantigen assay, mAb 6.25 ug/ml
Histone [36] = assay: Athena autoantigen assay, mAb 6.25 ug/ml
Jo 1 [37] = assay: Athena autoantigen assay, mAb 6.25 ug/ml
JRFL gp140 (HIV-1) [38] = assay: SPR, MAb on the surface, Env injected; JRFFL wt (not deglycosylated); Kon (x10^3 M-1s-1)
[39] = biological target: Influenza HA (Wisconsin) (influenza virus); assay: Luminex assay, antibody 50 µg/ml
HCV E2 (HCV) = assay: Luminex assay, antibody 50 µg/ml

Chain of SSB (P05455 whole entry): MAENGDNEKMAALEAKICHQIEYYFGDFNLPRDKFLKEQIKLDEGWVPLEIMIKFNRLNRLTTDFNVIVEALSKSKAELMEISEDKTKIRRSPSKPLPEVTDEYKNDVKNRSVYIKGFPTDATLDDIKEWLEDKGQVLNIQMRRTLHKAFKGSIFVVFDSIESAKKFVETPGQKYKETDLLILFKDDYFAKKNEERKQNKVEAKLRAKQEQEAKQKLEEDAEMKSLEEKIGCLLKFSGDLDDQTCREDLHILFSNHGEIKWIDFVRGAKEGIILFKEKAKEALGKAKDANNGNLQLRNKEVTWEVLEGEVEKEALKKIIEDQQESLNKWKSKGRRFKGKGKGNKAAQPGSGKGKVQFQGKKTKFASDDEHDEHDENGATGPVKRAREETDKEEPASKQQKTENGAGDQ
Chain of Jo 1 (P12081 2-509): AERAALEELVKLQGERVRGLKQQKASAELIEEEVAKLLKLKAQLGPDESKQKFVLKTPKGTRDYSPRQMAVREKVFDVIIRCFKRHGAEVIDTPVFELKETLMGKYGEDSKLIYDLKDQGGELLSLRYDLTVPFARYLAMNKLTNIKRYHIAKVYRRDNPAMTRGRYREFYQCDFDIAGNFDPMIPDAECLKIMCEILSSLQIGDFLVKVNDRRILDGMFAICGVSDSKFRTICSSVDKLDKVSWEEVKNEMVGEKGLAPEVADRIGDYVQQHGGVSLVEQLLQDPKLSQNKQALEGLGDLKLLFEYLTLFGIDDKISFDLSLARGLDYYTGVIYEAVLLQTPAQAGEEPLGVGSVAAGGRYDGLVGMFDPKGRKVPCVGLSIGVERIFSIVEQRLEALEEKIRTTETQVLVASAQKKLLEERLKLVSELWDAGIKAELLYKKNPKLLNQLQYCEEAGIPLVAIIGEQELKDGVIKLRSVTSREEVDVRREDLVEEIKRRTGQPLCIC

4E10 (antibody) showed an Athena autoreactivity score (SSA [1]) of 247, an Athena autoreactivity score (Sm [2]) of 7 and an Athena autoreactivity score (Scl 70 [3]) of 4. The Athena autoreactivity score (SSB [4]) was 206, the Athena autoreactivity score (RNP [5]) was 15 and the Athena autoreactivity score (Histone [6]) was 274. The Athena autoreactivity score (Jo 1 [7]) was 138, the Kd [8] was 135 nM and the koff [9] was 0.001 s⁻¹. It also gave an Athena autoreactivity score (SSA [10]) of 306, an Athena autoreactivity score (SSB [11]) of 254 and an Athena autoreactivity score (Histone [12]) of 333. For the same substance, the Athena autoreactivity score (Jo 1 [13]) was 156, the kon [14] was 27000 M⁻¹ s⁻¹ and the kon [15] was 21000 M⁻¹ s⁻¹. For the same substance, the Kd [16] was 0.73 nM, the koff [16] was 2.5e-05 s⁻¹ and the Kd (JRFL gp140 (HIV-1) [17]) was 2200 nM. The Athena autoreactivity score (SSA [18]) was 169, the Athena autoreactivity score (Sm [19]) was 5 and the Athena autoreactivity score (Scl 70 [20]) was 3. The Athena autoreactivity score (SSB [21]) was 124, the Athena autoreactivity score (RNP [22]) was 9 and the Athena autoreactivity score (Histone [23]) was 160. It also gave an Athena autoreactivity score (Jo 1 [24]) of 87, a kon [25] of 7400 M⁻¹ s⁻¹ and a koff [26] of 0.001 s⁻¹. For the same substance, the Kd [27] was 50 nM, the Kd [28] was 40 nM and the koff (JRFL gp140 (HIV-1) [29]) was 0.0013 s⁻¹. It also gave a koff [30] of 0.00099 s⁻¹, an Athena autoreactivity score (SSA [31]) of 115 and an Athena autoreactivity score (Sm [32]) of 4. It also gave an Athena autoreactivity score (Scl 70 [33]) of 2, an Athena autoreactivity score (SSB [34]) of 93 and an Athena autoreactivity score (RNP [35]) of 6. The Athena autoreactivity score (Histone [36]) was 113, the Athena autoreactivity score (Jo 1 [37]) was 65 and the kon (JRFL gp140 (HIV-1) [38]) was 600 M⁻¹ s⁻¹. It also gave a background subtracted RFUs [39] of 0 RFU and a background subtracted RFUs (HCV E2 (HCV)) of 89.2 RFU.
